We go through four molecules from patent US20100172896A1, “HMGB1 PROTEIN INHIBITORS AND/OR ANTAGONISTS FOR THE TREATMENT OF VASCULAR DISEASES” (BIO3 RESEARCH SRL, priority 2001, published 2010).

Common to all, as to type: cell-based
In one assay the test system is phosphorylated ERK1/2. As to the kind of experiment: ERK1/2 phosphorylation and nuclear translocation in RSMC (immunostaining). Also noted: inhibition of HMGB1-induced ERK phosphorylation and nuclear translocation: dose or concentration left out as unconfirmed. On the procedure: Afterwards, whether the HMGB1-induced signaling involves the MAP kinase pathway, was investigated; in fact, it is known that these proteins are activated by RAGE, and they have a direct role in the regulation of the intracellular motility machinery. RSMC were pretreated with PD98059 ([…]) for one hour or were not pre-treated, stimulated for 30 minutes with HMGB1 from calf thymus (100 ng/ml) and stained with specific antibodies against phosphorylated ERK1/2 (New England Biolabs, Beverly, Mass.) and DAPI. A separate sample of cells was stained with TRITC-phalloidin to visualize the reorganization of cytoskeleton. […] Moreover, PD98059, the selective inhibitor of MEK, the upstream regulator of ERK, inhibits HMGB1-induced ERK phosphorylation and. nuclear translocation, as well as RSMC migration and cytoskeleton reorganization.

The subject of assay [1] is RSMC. As to the kind of experiment: Chemotaxis assay, modified Boyden chambers, RSMC. On the procedure: Chemotaxis assays were performed using well-known protocols (Degryse et al., 1999, Blood, 94: 649-662).
Modified Boyden chambers were used with filters having 0.5 Am pore size (Corning, Acton, Mass.) and. treated with collagen I (100 Ug/ml in 0.5 M acetic acid) e fibronectin (10 IIg/ml) (Roche). RSMC cells (kind gift of Dr. Marco Bertulli, Bayer Research Laboratories, Milan) were cultured in DMEM serum-free and a sample of 20.000-40.000 cells was added to the upper well of Boyden. chamber. The molecules to be tested were diluted in the same serum-free medium and added to the lower well.
Different HMGB1 preparations were used: HMGB1 purified from calf thymus (kind gift of J. Bernues, C.S.I.C., Barcelona, Spain), E. coli expressed […], and a lightly modified HMGB1 form (containing EAEAYVEF aminoacids bound to the Nterminus) produced in yeast Pichia pastoris (Mistry et al., 1997, Biotechniques, 22: 718-729).
If necessary, the polyclonal rabbit anti-HMGB1 (Pharmingen B D, Torrey Pines, Calif.), the pertussis toxin (PT) from Bordetella pertussis (kind gift of Dr. M. G. Pizza, I.R.I.S., Siena) or the inhibitors were added in both wells.
Overnight cell migration was allowed at 37 C, then cells remaining on the upper surface of filters were scraped off and filters were fixed in methanol and stained in a solution of 10% crystal violet in 20% methanol. All experiments were performed at least twice in triplicate.
Results, as shown in FIGS. 1-A, 1-B, 1-C, 1-D, are the mean±SD of the number of cells counted in 10 high power fields per filter and expressed as fold over control. To random cell migration (i.e., migration in the absence of chemoattractant) was given the arbitrary value of 100%.
Statistical analysis was performed using Student's t test for pairwise comparisons of treatments, or an ANOVA model for the evaluation of treatments with increasing doses of a reagent.
Knowing that many chemoattractants act via membrane receptors associated to heterotrimeric GTP binding proteins (G proteins), whether G proteins could be implicated in HMGB1 signaling was tested. […] RSMC were pre-treated with PT or with mPT (50 ng/ml) for 6 hours, thus stimulated with HMGB1 (100 ng/ml), Box A or Box B (10 ng/ml) for 30 minutes.
Chemotaxis assays were performed as previously described. The data represent the mean±SD and the value of 100% corresponds to basal migration in the absence of any stimulator.

The test system of assay [2] is RSMC. As to the kind of experiment: Immunofluorescence assay of RSMC morphology and actin cytoskeleton organization. The method, then:
Samples of 15.000-20.000 RSMC, 20-40% confluence, 2 were seeded on glass coverslips in 2 cm wells and cultured for 24 hours in DMEM plus 10% FCS, washed with PBS, and cultured for another 24 hours in DMEM without FCS. RSMC were stimulated with HMGB1 100 ng/ml for increasing time intervals, from 5 to 120 minutes at 37 C. After stimulation, RSMC were fixed for 20 minutes at room temperature with a solution of 3% paraformaldehyde, 2% sucrose in PBS, pH 7.5, followed by three washes with PBS-BSA 0.2%. Cells were permeabilized with 20 mM Hepes pH 7.4, 300 mM saccharose, 50 mM NaCl, 3 mM MgCl2, 0.5% (v/v) Triton X-100 for 3 minutes at 4 C, and washed again three times with PBS-BSA 0.2%. Then, RSMC were incubated with PBS-BSA 2% for. 15 minutes at 37 C, with primary antibodies for 30 minutes at 37 C, washed three times with PBS-BSA 0.2%, and further incubated with PBS-BSA 2% for 15 minutes. At the end, cells were stained with secondary antibodies and/or phalloidin conjugated with rodamin for visualization of filamentous actin; in some cases, DAPI (4′,6-diamidino-2-phenilindolo, Roche) was used to label the nucleus.
After all the subsequent incubation, coverslips were washed three times with PBS-BSA 0.2%, twice with distilled water, mounted with 20% Mowiol in PBS and analysed on a Axiophot microscope (Carl Zeiss).
Fluorescence photographs were taken either on T-Max 400 or EPH P1600X film (Eastman Kodak) using Zeiss 40 and 100 neofluar lenses.
In certain experiments cells were overnight pretreated with antibodies or PT or inhibitors.
Finally, to determine whether the observed effects of HMGB1 on RSMC actually reflect a dynamic transition from resting to motile states, the proportion of cells in each different state was quantified.

The subject of assay [3] is Mouse embryonic fibroblasts. As to the kind of experiment: Chemotaxis assay on fibroblasts, modified Boyden chambers. The method, then:
Chemotaxis assays were performed using well-know protocols (Degryse et al., 1999, Blood, 94:64. 9-662). Modified Boyden chambers were used with filters having 0.5 ym pore size (Corning, Acton, Mass.) and treated with collagen I (100 pg/ml in 0.5 M acetic acid) and fibronectin (10 IIg/ml) (Roche). Mouse embryonic fibroblasts were cultured following well-known protocols (Calogero et al., 1999, Nat. Genet., 22: 276280) and after 24 hours of serum starvation, a sample of 20.000-40.000 cells was added to the upper well of Boyden. chamber. E. Coli expressed recombinant-HMGB1 was diluted in the same serum-free medium and added to the lower well. Anti-RAGE antibodies (1000 ng/ml) (kind gift of Dr. A. M. Schimdt, Columbia University, NY) were added in both wells.
Overnight cell migration. was allowed at 37 C, then cells remaining on the upper surface of filters were scraped off and filters were fixed in methanol and stained in a solution of 10% crystal violet in 20% methanol. All experiments were performed at least twice in triplicate.
Results, as shown in FIG. 10 are the mean W SD of the number of cells counted in 10 high power fields per filter and expressed as fold over untreated control. To random cell migration (i.e. migration in absence of chemoattractant) was given the arbitrary value of 100%.
Statistical analysis was performed using an ANOVA model for the evaluation of treatments with increasing doses of a reagent. […] Anti RAGE antibodies (1000 ng/ml) totally block the migratory response (right side of the graphic of FIG. 10) showing that this is specifically due to HMGB1.

[4] abbreviates: HMGB1 100 ng/ml, one hour after stimulation.

As for `COc1cccc(-c2cc(=O)c3ccccc3o2)c1N` [PD98059, reference compound], the “inhibition of HMGB1-induced ERK phosphorylation and nuclear translocation” value with phosphorylated ERK1/2 (pretreated with PD98059 for one hour) was “inhibits”. In the assay on RSMC [1] (inhibitor in both wells or pre-treatment, HMGB1 as chemoattractant), the “inhibition of HMGB1-induced RSMC migration” value is recorded as “inhibits”. The “inhibition of HMGB1-induced cytoskeletal reorganization and morphological change of RSMC” value with RSMC [2] (cells pretreated with antibodies, PT or inhibitors) is recorded as “inhibits”.

B1: HMGB1 from calf thymus: HMGB1 purified from calf thymus (protein, UniProt P10103 2-215, looked up)
High mobility group protein B1: GKGDPKKPRGKMSSYAFFVQTCREEHKKKHPDASVNFSEFSKKCSERWKTMSAKEKGKFEDMAKADKARYEREMKTYIPPKGETKKKFKDPNAPKRPPSAFFLFCSEYRPKIKGEHPGLSIGDVAKKLGEMWNNTAADDKQPYEKKAAKLKEKYEKDIAAYRAKGKPDAAKKGVVKAEKSKKKKEEEEDEEDEEDEEEEEDEEDEEEEEDDDDE
On to B1, for which the “maximal migratory response of RSMC” value in the assay on RSMC [1] (at 100 ng/ml, random cell migration = 100%) was 2.5 fold. In the assay on RSMC [1] (concentration-dependent, overnight migration), the “lowest dose stimulating migration of RSMC” value worked out at 0.1 ng/mL.

B2: E. Coli expressed recombinant-HMGB1: full-length HMGB1 expressed in E. Coli transformed with pT7-7-rHMGlcm plasmid (protein, UniProt P09429 1-215, looked up)
chain: MGKGDPKKPRGKMSSYAFFVQTCREEHKKKHPDASVNFSEFSKKCSERWKTMSAKEKGKFEDMAKADKARYEREMKTYIPPKGETKKKFKDPNAPKRPPSAFFLFCSEYRPKIKGEHPGLSIGDVAKKLGEMWNNTAADDKQPYEKKAAKLKEKYEKDIAAYRAKGKPDAAKKGVVKAEKSKKKKEEEEDEEDEEDEEEEEDEEDEDEEEDDDDE
modifications: full-length expressed in E. coli
notes: full-length HMGB1 expressed in E. Coli transformed with pT7-7-rHMGlcm plasmid
Turning to B2, the “dose giving maximal migratory response of fibroblasts” value in assay [3] turned out to be 100 ng/mL. Besides, in assay [3] (1000 ng/ml), the “migratory response of fibroblasts at higher doses” value is recorded as “lower than the control”. For the same molecule, the “lowest dose stimulating fibroblasts migration” value in assay [3] (concentration-dependent) stood at 0.1 ng/mL.

B3: HMGB1: HMGB1 protein, 25-kD, 215 amino acids, two HMG boxes and acidic COOH terminus; preparation not specified at the place (protein, UniProt P09429 1-215, looked up)
High mobility group protein B1: B2 chain
For B3, in the assay with phosphorylated ERK1/2 (HMGB1 from calf thymus 100 ng/ml, within 30 minutes), the “activation and nuclear translocation of ERK1/2 in RSMC” value is “induces the activation of ERK1/2 proteins”. In addition, the “chemotactic effect on RSMC (in words)” value in the assay with RSMC [1] (overnight migration, serum-free medium) was “comparable in amplitude to the effects of the well characterised attractants fMLP and bFGF”. Also, the “proportion of cells in state 2” value in the assay with RSMC [2] (HMGB1 100 ng/ml, after 15-30 minutes) is 80%; in the assay with RSMC [2] (setting [4]), 40%; in the assay on RSMC [2] (HMGB1 100 ng/ml, within 5 minutes after stimulation), 60%. Moreover, in the assay on RSMC [2] (setting [4]), the “proportion of cells in state 1” value is given as 60%. In addition, the “change of RSMC morphology and cytoskeleton organization” value with RSMC [2] (HMGB1 100 ng/ml, within 15-30 minutes) was “complete change of morphology and cytoskeleton organization”.
